Paper PMC5834165, “Crystal structures of PCNA mutant proteins defective in gene silencing suggest a novel interaction site on the front face of the PCNA ring” (PLoS ONE, 2018)
Changes are numbered by the printed parent chain. Names may count otherwise.

B1: D41A/D42A mutant PCNA protein from Saccharomyces cerevisiae (natural protein)
chain: MLEAKFEEASLFKRIIDGFKDCVQLVNFQCKEDGIIAQAVAASRVLLVSLEIGVEAFQEYRCDHPVTLGMDLTSLSKILRCGNNTDTLTLIADNTPDSIILLFEDTKKDRIAEYSLKLMDIDADFLKIEELQYDSTLSLPSSEFSKIVRDLSQLSDSINIMITKETIKFVADGDIGSGSVIIKPFVDMEHPETSIKLEMDQPVDLTFGAKYLLDIIKGSSLSDRVGIRLSSEAPALFQFDLKSGFLQFFLAPKFNDEE
notes: PCNA, Saccharomyces cerevisiae, with D41A and D42A; also called D41A/D42A PCNA; encoded by the pol30-6 allele; source: E. coli, overexpressed, purified as described previously [35]
B2: L126A/I128A mutant PCNA protein from Saccharomyces cerevisiae (natural protein)
chain: B1 chain with A41D, A42D, L126A, I128A
notes: PCNA, Saccharomyces cerevisiae, with L126A and I128A; also called L126A/I128A PCNA; encoded by the pol30-79 allele; source: E. coli, overexpressed, purified as described previously [35]
B3: R61A/D63A mutant PCNA protein from Saccharomyces cerevisiae (natural protein)
chain: B1 chain with A41D, A42D, R61A, D63A
notes: PCNA, Saccharomyces cerevisiae, with R61A and D63A; also called R61A/D63A PCNA; encoded by the pol30-8 allele; source: E. coli, overexpressed, purified as described previously [35]

Target: the molecule itself
Assay: native gel or EMSA; proteins at 0.1, 0.5, 1.0 mg/ml in 10 mM Tris-Cl pH 7.6, 150 mM NaCl, 2.5% Ficoll-400, 10 mM EDTA, 5 min; 4-20% gradient nondenaturing Tris-Glycine gel at 4°C; Coomassie blue; self-association (trimer)

Stoichiometry N, 3:
B1, B2, B3
